For the assay, the target named is VFLIP_D614G spike with Foldon and purification tags enzymatically removed (SARS-CoV-2) (UniProt P0DTC2). In words: cryo-EM structure.

On to “HLX70 Fab (Fab from HLX70, a humanized pan-coronavirus mAb)”, for which the stoichiometry N – broadly, the number of molecules, sites or subunits per partner or assembly – is 3 Fab:spike.

The values are drawn from doi:10.1101/2021.05.06.441046.
